Substitutions are numbered along the chain they refer to.
Legend:
[1] = target: T1, NIGT1.1 L25A/L39A L25A;L39A (Arabidopsis thaliana (Col-0?)) (UniProt Q9FPE8); experiment: EMSA; details: EMSA: 15 ul reaction, 40 fmol biotin-labeled probe, 7.5-60 ng protein, 4% polyacrylamide gel; buffer, salt, pH and temperature not given (as in ref 24)
T1 sequence: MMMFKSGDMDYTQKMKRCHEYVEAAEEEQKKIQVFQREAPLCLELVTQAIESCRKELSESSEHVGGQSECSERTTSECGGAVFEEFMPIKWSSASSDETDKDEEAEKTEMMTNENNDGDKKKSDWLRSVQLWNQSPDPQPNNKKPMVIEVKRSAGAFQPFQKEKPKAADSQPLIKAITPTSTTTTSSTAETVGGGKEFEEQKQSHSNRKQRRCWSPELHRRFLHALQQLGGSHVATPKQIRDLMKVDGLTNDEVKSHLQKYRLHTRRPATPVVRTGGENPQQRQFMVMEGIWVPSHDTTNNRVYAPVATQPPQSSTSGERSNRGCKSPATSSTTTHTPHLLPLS

[2] = target: T2, NIGT1.1 WT (Arabidopsis thaliana (Col-0?)) (UniProt Q9FPE8); experiment: EMSA; details: EMSA: 15 ul reaction, 40 fmol biotin-labeled probe, 7.5-60 ng protein, 4% polyacrylamide gel; buffer, salt, pH and temperature not given (as in ref 24)
T2 sequence: T1 sequence with A25L, A39L

[3] = target: the molecule itself; experiment: SEC-MALS; Shodex PROTEIN LW-803 column; 20 mM Tris-HCl (pH 7.5), 500 mM NaCl, 10% glycerol, room temperature; 1 mg/ml, 70 μl loaded; 0.8 ml/min

Molecule: AATATTTAAATCGATAGTTAACCGTTGAGAATCTCCAAAGAATGCTTTTTTCATTGTCAACACTGGCTAGGAACCCTATATAAGCCATCGTGTGATTAATATTCAGACATCGCATGGTCATAGCTGTTTCCTGTGT (double strand) [P3-2]
- binding [1]: binds more weakly
- binding [2]: no binding

Molecule: AATGAATTAAGACGCGAATCGGGAAAATTCAATAAATTGTCCATTGGGGGGTGCTTTAAAGAAAGATTGAAAGATGCCGAGGTTTATACCCTTTTCCTATCAAGAATATTCCATGGAATCCAACTACTTTTGACCCATTTGCGTATTTGTTAAATCTTTTCAGAAAATCAAAAGTGGGTAAATTGTCAAACTAGTTGTAGTATTGAACTACTATTTATTGATCATGCCATCATCCATGGTCATAGCTGTTTCCTGTGT (double strand) [P1 (SPX1 promoter)]
- binding [1]: binds more weakly
- binding [2]: binds

Molecule: ACACAGGAAACAGCTATGACCATGAGCTCTTTTATTTTCTGGGAAACTTAAGTGAGAATGATGAATGAAGAAGAAAGAGAGGGGGAAGAGGTTTAGAGATATAAAAGGGATTAAAAAGAATATTCTTAAGGTTTCTAATTAGAATATCCTTTTTTCTCTGTCTTTCTTTCGGGAGAATATCTTCCTTTTATTCCTTTCTTATTTATTACTTTTTCGTGGTTATCTGTGGGTGAGATTATAACACATGCCTATGTCAGTTCATAAATATCAATCACAACTC (double strand) [P2 (SPX1 promoter)]
- binding [1]: binds more weakly
- binding [2]: binds

Molecule: ACACAGGAAACAGCTATGACCATGCAACGGTTAACTATCGATTTAAATATTAATTTTCGAGGAATCCATTTTCGCCGCAAGCATCTTCCTAGTCTCTCGCTTATCACCAAAGGTTGCCGATATCCTTCCAAATGACCGCTCTACCCTTCCCTCATCTTGC (double strand) [P3-1]
- binding [1]: binds more weakly
- binding [2]: no binding

Molecule: ACACAGGAAACAGCTATGACCATGCGATGTCTGAATATTAATCACACGATGGCTTATATAGGGTTCCTAGCCAGTGTTGACAATGAAAAAAGCATTCTTTGGAGATTCTCAACGGTTAACTATCGATTTAAATATTAATTTTCGAGGAATCCATTTTCGCCGCAAGCATCTTCCTAGTCTCTCGCTTATCACCAAAGGTTGCCGATATCCTTCCAAATGACCGCTCTACCCTTCCCTCATCTTGC (double strand) [P3 (NRT2.1 promoter)]
- binding [1]: binds more weakly
- binding [2]: binds

B1: Trx-6×His-NIGT1.1^WT-6×His recombinant protein (natural protein, Arabidopsis thaliana, UniProt Q9FPE8 1-344, looked up)
chain: T1 sequence with A25L, A39L
notes: NIGT1.1, Arabidopsis thaliana, At1g25550; cDNA encoding NIGT1.1^WT cloned into pET32-b(+) by NcoI and HindIII; expected mass of the recombinant protein 57.4 kDa; Plasmid pET32-NIGT1.1; also called recombinant NIGT1.1^WT; Trx-6×His-NIGT1.1-6×His; not shown: Trx, N-terminal, kept; 6×His, N-terminal, kept; 6×His, C-terminal, kept
- stoichiometry N [3]: 2

Reference: article PMC7660924, “NIGT1 family proteins exhibit dual mode DNA recognition to regulate nutrient response-associated genes in Arabidopsis” (PLoS Genetics, 2020)
